Consider five molecules from article PMC9940631 (Molecular Cancer Therapeutics, 2022).

Where a SMILES comes first, the peptide text is derived from it. [ ]: non-standard residue; d: D form. The star is where a group is joined. Dolaproine = CO[C@@H]([C@@H]1CCCN1)[C@@H](C)C(=O)O; Dil = CC[C@H](C)[C@H](NC)[C@@H](CC(=O)O)OC; X1 = C[C@@H](N*)[C@@H](O)c1ccccc1; NMeV = CN[C@H](C(=O)O)C(C)C

Data set [1] relates to NCI-H292, MDA-MB-468, and NCI-H322 CDX tumors. Description: Tumor MMAE accumulation after BT8009 in CDX models. It counts as in vivo, mouse. The settings on record: after administration of BT8009, three CDX models, n = 3 per timepoint, LC/MS-MS.
The target of data set [2] is T1, endogenous Nectin-4 expressed on the cell membrane of MDA-MB-468 cells (Homo sapiens, UniProt Q96NY8).
T1 sequence (Q96NY8 32-510): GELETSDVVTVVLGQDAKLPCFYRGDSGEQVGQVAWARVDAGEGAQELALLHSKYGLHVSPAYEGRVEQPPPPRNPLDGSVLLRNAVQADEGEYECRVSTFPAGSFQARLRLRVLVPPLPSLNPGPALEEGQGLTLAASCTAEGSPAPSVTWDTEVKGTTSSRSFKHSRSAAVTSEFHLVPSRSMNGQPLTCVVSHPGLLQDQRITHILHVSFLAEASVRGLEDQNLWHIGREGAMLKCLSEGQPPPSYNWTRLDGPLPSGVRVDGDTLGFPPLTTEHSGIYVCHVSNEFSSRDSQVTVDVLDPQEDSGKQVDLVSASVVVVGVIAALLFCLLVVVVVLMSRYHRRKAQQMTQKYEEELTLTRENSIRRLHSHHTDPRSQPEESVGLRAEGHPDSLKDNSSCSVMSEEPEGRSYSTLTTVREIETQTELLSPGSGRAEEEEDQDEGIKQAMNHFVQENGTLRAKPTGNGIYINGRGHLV
Nature of the data set: High content imaging of binding to live MDA-MB-468 cells. The settings on record: anti-MMAE antibody detection.

For data set [3], the target named is endogenous Nectin-4 expressed on the cell membrane of MDA-MB-468 cells (human (endogenous in MDA-MB-468)) (UniProt Q96NY8). Nature of the data set: high content imaging of binding to live cells.
Data set [4] concerns the target human Nectin-4 extra-cellular domain (human) (UniProt Q96NY8). Description: SPR. For orientation: SPR reads the build-up and loss of mass on a sensor chip optically.
Another data set addresses hNecl5 (human) (UniProt P15151). Nature of the data set: SPR.
In the next data set the target is hNectin2 (human) (UniProt Q92692). Nature of the data set: SPR.
Another data set deals with hNecl3 (human) (UniProt Q8N3J6). Nature of the data set: SPR.
The target in the next data set is hNecl4 (human) (UniProt Q8NFZ8). Nature of the data set: SPR.
Another data set has as its target hNecl1 (human) (UniProt Q8N126). Nature of the data set: SPR.
In another data set the target is hNectin3 (human) (UniProt Q9NQS3). Nature of the data set: SPR.
The target in the next data set is hNectin1 (human) (UniProt Q15223). Nature of the data set: SPR.
In the next data set the target is hNecl2 (human) (UniProt Q9BY67). Description: SPR.
A further data set addresses Nectin-4. Nature of the data set: SPR of Nectin-4 ADC. The class given is binding. The settings on record: read-out: KD for Nectin-4, chip coated with ADC, protein passed over it.
Data set [5] has as its system head and neck PDX (HN-13–001). Description: Head and neck PDX model. It counts as in vivo, mouse. The settings on record: dosed initially at 5 mg/kg (D0, D7) and subsequently 10 mg/kg (D14).
In a further data set the test system is LU-01–0412 PDX. Description: LU-01–0412 lung PDX model. The class given is in vivo, mouse. The following applies: PDX NSCLC, Fig. 6D; rate and degree of regression comparable.
The conditions of data set [6]: In ICR SCID mouse; ref Enfortumab vedotin data from literature; cited from earlier work.
For data set [7] the following is noted: terminal plasma half-life; ref EV multi-disciplinary review and evaluation; cited from earlier work.
For data set [8] the following is noted: terminal plasma half-life; ref EV multi-disciplinary review and evaluation; cited from earlier work. This is another data set of the same source.

Sequence of hNecl3 (human) (Q8N3J6 25-435): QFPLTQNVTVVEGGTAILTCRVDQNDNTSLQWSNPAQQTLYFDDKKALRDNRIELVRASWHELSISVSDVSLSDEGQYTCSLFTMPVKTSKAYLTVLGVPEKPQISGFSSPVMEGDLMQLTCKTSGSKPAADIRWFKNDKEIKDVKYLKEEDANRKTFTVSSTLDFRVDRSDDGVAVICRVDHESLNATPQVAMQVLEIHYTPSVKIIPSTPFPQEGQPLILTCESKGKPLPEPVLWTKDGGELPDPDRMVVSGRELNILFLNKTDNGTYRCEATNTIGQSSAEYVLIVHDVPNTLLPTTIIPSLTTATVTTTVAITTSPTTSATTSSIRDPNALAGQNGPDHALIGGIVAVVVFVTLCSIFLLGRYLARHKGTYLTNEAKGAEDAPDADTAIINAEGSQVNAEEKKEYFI
Sequence of hNecl1 (human) (Q8N126 25-398): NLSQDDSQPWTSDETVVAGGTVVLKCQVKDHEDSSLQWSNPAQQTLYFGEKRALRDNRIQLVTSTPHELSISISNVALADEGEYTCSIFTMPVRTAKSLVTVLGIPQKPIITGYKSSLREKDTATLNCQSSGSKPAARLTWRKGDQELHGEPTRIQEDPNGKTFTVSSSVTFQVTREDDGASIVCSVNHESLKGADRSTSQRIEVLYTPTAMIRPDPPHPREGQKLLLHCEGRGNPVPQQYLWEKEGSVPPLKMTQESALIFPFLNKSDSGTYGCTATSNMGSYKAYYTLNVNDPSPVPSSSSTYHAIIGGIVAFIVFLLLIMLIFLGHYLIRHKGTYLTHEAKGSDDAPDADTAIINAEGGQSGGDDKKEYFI
Sequence of hNecl2 (human) (Q9BY67 45-442): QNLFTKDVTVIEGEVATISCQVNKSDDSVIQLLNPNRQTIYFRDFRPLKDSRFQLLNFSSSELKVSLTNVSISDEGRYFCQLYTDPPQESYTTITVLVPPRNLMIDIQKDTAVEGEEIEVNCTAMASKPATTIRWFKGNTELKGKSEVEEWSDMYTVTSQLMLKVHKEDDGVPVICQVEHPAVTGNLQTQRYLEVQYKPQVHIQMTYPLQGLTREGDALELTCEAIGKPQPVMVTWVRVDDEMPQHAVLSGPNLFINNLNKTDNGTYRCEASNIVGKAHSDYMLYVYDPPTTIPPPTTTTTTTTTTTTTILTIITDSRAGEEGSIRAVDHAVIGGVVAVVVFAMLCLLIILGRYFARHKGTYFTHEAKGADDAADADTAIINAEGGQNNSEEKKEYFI
Sequence of hNecl5 (human) (P15151 21-417): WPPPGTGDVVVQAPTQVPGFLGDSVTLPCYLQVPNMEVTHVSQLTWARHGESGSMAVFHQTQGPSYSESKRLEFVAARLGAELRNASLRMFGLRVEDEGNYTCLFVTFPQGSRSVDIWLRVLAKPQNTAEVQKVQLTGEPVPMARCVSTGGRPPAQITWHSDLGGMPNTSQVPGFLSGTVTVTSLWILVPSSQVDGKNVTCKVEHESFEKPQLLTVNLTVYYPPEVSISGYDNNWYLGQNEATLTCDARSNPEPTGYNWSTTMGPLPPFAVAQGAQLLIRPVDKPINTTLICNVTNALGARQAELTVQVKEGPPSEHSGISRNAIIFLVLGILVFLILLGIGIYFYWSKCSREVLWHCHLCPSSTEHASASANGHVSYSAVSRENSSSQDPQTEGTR
Sequence of hNectin1 (human) (Q15223 31-517): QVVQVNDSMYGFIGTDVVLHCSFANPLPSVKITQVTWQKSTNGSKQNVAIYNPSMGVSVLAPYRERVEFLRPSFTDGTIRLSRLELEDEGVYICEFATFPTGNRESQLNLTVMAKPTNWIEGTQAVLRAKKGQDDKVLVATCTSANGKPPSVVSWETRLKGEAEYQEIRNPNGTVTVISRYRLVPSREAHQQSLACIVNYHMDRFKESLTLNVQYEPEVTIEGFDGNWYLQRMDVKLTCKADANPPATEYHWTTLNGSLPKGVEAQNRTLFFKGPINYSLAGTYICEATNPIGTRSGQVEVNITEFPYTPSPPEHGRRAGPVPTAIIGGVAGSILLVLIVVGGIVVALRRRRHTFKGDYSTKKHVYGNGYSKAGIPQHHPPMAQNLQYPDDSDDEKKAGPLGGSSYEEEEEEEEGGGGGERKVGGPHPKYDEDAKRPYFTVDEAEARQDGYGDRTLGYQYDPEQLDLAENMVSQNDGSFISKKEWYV
Sequence of hNectin3 (human) (Q9NQS3 58-549): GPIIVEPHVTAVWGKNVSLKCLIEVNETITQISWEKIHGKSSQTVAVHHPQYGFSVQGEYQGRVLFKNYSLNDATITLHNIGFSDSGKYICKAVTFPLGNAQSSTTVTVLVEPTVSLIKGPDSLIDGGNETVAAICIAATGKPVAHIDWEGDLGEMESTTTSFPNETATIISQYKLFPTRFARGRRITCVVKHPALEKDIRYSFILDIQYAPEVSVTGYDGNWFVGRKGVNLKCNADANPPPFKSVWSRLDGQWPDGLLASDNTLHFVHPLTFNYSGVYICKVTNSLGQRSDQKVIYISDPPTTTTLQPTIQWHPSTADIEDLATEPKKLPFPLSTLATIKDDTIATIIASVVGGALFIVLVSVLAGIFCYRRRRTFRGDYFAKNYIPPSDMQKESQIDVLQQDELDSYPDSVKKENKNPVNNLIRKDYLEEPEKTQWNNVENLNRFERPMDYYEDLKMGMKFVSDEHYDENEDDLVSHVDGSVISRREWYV
Sequence of hNecl4 (human) (Q8NFZ8 21-388): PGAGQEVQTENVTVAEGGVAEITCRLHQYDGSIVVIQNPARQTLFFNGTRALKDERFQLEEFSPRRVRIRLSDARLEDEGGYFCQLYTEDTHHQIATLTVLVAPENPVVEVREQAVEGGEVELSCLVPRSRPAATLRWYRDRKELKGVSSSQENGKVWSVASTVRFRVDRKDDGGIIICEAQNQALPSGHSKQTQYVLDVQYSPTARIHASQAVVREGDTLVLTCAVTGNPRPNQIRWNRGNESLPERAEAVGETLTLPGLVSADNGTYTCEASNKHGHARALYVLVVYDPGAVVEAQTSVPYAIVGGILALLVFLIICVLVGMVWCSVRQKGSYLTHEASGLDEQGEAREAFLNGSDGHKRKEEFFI
Sequence of hNectin2 (human) (Q92692 32-538): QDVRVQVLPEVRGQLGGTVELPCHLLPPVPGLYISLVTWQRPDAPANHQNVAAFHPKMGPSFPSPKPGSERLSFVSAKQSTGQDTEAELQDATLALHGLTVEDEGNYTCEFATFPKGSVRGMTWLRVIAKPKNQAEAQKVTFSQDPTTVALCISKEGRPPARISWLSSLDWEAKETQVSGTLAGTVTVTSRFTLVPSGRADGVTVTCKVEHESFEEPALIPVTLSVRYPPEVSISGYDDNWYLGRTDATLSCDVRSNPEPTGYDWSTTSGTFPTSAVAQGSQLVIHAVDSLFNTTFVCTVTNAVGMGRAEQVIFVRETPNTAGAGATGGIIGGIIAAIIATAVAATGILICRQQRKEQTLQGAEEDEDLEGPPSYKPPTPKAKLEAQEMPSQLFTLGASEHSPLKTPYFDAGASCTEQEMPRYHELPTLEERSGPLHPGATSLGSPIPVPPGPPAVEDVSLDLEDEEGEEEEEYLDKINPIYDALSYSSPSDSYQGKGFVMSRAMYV

On to `CC[C@H](C)[C@@H]([C@@H](CC(=O)N1CCC[C@H]1[C@H](OC)[C@@H](C)C(=O)N[C@H](C)[C@@H](O)c1ccccc1)OC)N(C)C(=O)[C@@H](NC(=O)[C@@H](NC)C(C)C)C(C)C` [MMAE, mono-methylauristatin E] (H-[NMeV]V[Dil][Dolaproine]-X1), for which the “time to peak tumor concentrations of total MMAE” value in data set [1] lay within 2 to 4 h. For the same molecule, the “affinity for the cells (in words)” value in data set [2] (MDA-MB-468 cells, 4°C) was “no affinity”.

Consider BCY8781 (peptide), for which, in data set [3], the Kd (usually the concentration at which binding is half-saturated) is more than 10 µM.

For BT8009 (peptide), the Kd in data set [4] is 0.0025 µM; with hNecl5 (human), more than 20 µM; with hNectin2 (human) it was more than 20 µM; in the data set with hNecl3 (human), more than 20 µM; with hNecl4 (human), more than 20 µM; with hNecl1 (human), more than 20 µM. Further, the equilibrium dissociation constant (Kd) in the data set with hNectin3 (human) is more than 20 µM; with hNectin1 (human), more than 20 µM; in the data set with hNecl2 (human), more than 20 µM; in data set [3] it was 0.0129 µM.

As to “Nectin-4 ADC: in-house EV analog; enfortumab-sequence antibody conjugated with MC-VC-PAB MMAE, 152kDa, DAR 3.98”, in data set [2] (45 minutes at 4°C), the “Bmax(RFU) on MDA-MB-468 cells” value was determined as 35.2 ± 2.2 RFU. Also, at Nectin-4, the Kd is 0.0012 to 0.0046 µM. Further, the “antitumor response, ADC” value in data set [5] was “minimally reduced tumor growth rate”. In the data set with LU-01–0412 PDX, the “tumor regrowth after treatment cessation” value was “tumor regrowth from drug cessation”.

For the molecule enfortumab vedotin [EV], the “Vdss (L/kg), EV, Mouse” value in [6] is recorded as 0.08 L/kg. In data set [7], the “EV t1/2 rat” value was 24 to 31.2 h. For the same molecule, in data set [8], the “EV t1/2 NHP” value is 17 to 40.8 h.
